Experimental data published in PMC3360003.

Legend:
[1] = molecular target: Influenza A virus matrix 1 (M1) protein with a C-terminal His6-tag (Influenza A virus A/chicken/Jiangsu/1/1998 (H9N2)); assay: SEC
[2] = molecular target: Influenza A virus matrix 1 (M1) protein with a C-terminal His6-tag (Influenza A virus A/chicken/Jiangsu/1/1998 (H9N2)); assay: SEC; […], pH 5.0, 25°C; […]
[3] = molecular target: Influenza A virus matrix 1 (M1) protein with a C-terminal His6-tag (Influenza A virus A/chicken/Jiangsu/1/1998 (H9N2)); assay: […]; 0.2% ([…], pH 8.0, room temperature, 5 min; […]

Measured: stoichiometry N

Influenza A virus matrix 1 (M1) protein with a C-terminal His6-tag (natural protein)
2: all assays above
